Laboratory results from patent US20100099627A1 (YEDA RESEARCH AND DEVELOPMENT, published 2010).
Numbering of substitutions follows the chain as printed. One block for each binder: values may come before it.

How the values were obtained:
WT-GFP-ERK2, P63086 = target: T1, WT-GFP-ERK2, P63086
T1 chain: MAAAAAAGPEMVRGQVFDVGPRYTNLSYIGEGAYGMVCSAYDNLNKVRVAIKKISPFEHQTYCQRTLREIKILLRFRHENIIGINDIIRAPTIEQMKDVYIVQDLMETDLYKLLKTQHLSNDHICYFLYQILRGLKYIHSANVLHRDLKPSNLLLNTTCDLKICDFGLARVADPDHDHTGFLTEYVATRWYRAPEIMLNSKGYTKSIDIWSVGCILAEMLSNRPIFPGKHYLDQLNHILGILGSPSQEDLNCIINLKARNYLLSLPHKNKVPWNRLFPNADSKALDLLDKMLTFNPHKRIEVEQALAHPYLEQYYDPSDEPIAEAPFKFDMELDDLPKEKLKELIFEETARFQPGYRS

APA-GFP-ERK2, P63086 = target: T2, APA-GFP-ERK2, P63086
T2 chain: T1 chain with S244A, S246A

TEY-AAA-ERK2, P63086 = target: T3, TEY-AAA-ERK2, P63086
T3 chain: T1 chain with T183A, E184A, Y185A

importin-β = target: T4, importin-β (UniProt Q14974 1-876); experiment: co-immunoprecipitation with anti GFP Ab from HeLa cells, Western blot with anti importin-β Ab
T4 construct: also called Impβ
Method: FIG. 9A. […] The extracts of the treated cells were then subjected to coimmunoprecipitation using A/G beads pre-conjugated with anti GFP Ab and mild washes. […] The equal amount of immunoprecipitated ERKs was determined with anti GFP (αGFP; IP) Ab. FIG. 19B. […] HeLa cells overexpressing 2GFP, 2GFP-SPS, 2GFP-APA and 2GFP-EPE constructs were subjected to coimmunoprecipitation as described in FIG. 19A (without EGF stimulation). FIG. 19C. […] This was followed by mild washing, and the beads were then subjected to Western blot analysis using anti His (αHis) and anti αGFP Abs.

B1: active GST-ERK2 (protein)
chain: T1 chain
- ^32P incorporation, in vitro kinase assay (WT-GFP-ERK2, P63086): ^32P incorporation to GFP-ERK2 was detected mainly when this protein was incubated with Act-ERK2
- ^32P incorporation, in vitro kinase assay (reduction against GFP-ERK2) (APA-GFP-ERK2, P63086): that of SPS-APA was reduced by ˜80%
- ^32P incorporation, in vitro kinase assay (reduction against GFP-ERK2) (TEY-AAA-ERK2, P63086): The phosphorylation of TEY-AAA was reduced by ˜25%

B2: WT-GFP-ERK2 (enzyme, UniProt P63086 1-358, looked up)
chain: T1 chain
modifications: SPS domain (Ser244, Ser246) and TEY motif phosphorylated upon stimulation of the cells (EGF, TPA, VOOH); the state depends on the cell treatment named in each row
notes: Overexpressed in HeLa or COS7 cells and immunoprecipitated with anti GFP Ab; also called WT-ERK2; WT-ERK; not shown: GFP encoded by pEGFP C1 (Clontech)
- binding result (importin-β): no binding

Next, values leading:

- binding result (importin-β): no binding
B3: EPE-GFP-ERK2 (enzyme, UniProt P63086 1-358, looked up)
chain: T1 chain with S244E, S246E
notes: also called GFP-ERK244/6E; ERK-EE; not shown: GFP encoded by pEGFP C1 (Clontech)

- binding result (importin-β): no binding
B4: APA-GFP-ERK2 (enzyme, UniProt P63086 1-358, looked up)
chain: T1 chain with S244A, S246A
notes: also called GFP-ERK244/6A; ERK-AA; not shown: GFP encoded by pEGFP C1 (Clontech)
